From US20080227698A1, “OLIGOPEPTIDES FOR TREATMENT OF OSTEOPOROSIS AND OTHER BONE DISEASES AND METHODS THEREOF” (Washington University, priority 2005, published 2008)

Key:
[1] = biological target: T1, other members of the LDLR family (LDLR, LRP, LRP1 B, VLDLR, apoER2) (Homo sapiens, UniProt Q07954); assay: ^125I-Mesd binding to cells expressing other members of the LDLR family; settings: ^125I-Mesd 5 nM, 4 hours at 4° C.
T1 construct: expressed in transfected cells; host or cells: HEK293 (transient HA-LDLR); also endogenous receptors in MEF lines, MCF-7, U87 and SMC
Procedure: (§1) Cells (2×10^5) were seeded into 12-well dishes 1 day prior to assay. Ligand-binding buffer (minimal Eagle's medium containing 0.6% BSA with a different concentration of radioligand, 0.6 ml/well) was added to cell monolayers, in the absence or the presence of 500 nM unlabeled RAP or 500 nM unlabeled Mesd, followed with incubation for 0-4 hours at 4° C. Thereafter, overlying buffer containing unbound ligand was removed, and cell monolayers were washed and lysed in low-SDS lysis buffer (62.5 mM Tris-HCl pH 6.8, 0.2% SDS, 10% v/glycerol) and counted.
(§2) To determine whether Mesd binds to other members of the LDLR family, ^125I-Mesd binding analysis was performed with four groups of cells expressing different members of the LDLR family (FIG. 2). In the first experiment, HEK293 cells were transiently transfected with cDNAs for the LDLR, LRP5, LRP6 or empty pcDNA3 vector. […]

[2] = system: other members of the LDLR family (LDLR, LRP, LRP1 B, VLDLR, apoER2); assay: as above; design: species or system human; settings: ^125I-Mesd 5 nM, 4 hours at 4° C., HEK293, CHO, MEF cells
Procedure: as §1, §2

Wnt signaling = assay: Wnt signalling TCF/LEF-Luc assay in HEK293 cells (Wnt3A conditioned medium plus Dkk1); format: cell-based; settings: Wnt3A conditioned medium plus Dkk1 protein at 10 nM
Procedure: HEK293 cells were plated into six-well plates. For each well, […] of the TOP-[…] luciferase construct (Upstate Biotechnology) was cotransfected with 0.8 μg Mesd-expressing vector, 0.8 μg Mesd mutant-expressing vector, or empty vector. A β-galactosidase-expressing vector (Promega, Madison, Wis.) was included as an internal control for transfection efficiency. After 48 hours, cells were lysed and both luciferase and β-galactosidase activities were determined with enzyme assay kits (Promega). The luciferase activity was determined with a luminometer using the Dual Luciferase Assay system (Promega). Luciferase activity was normalized to the activity of the P-galactosidase.

LRP6 = LRP6 (Homo sapiens, UniProt O75581); assay: ^125I-Mesd cell surface ligand binding to LRP6-transduced HT1080 cells; design: plasmid pCS-Myc-hLRP6 containing the full-length human LRP6 cDNA; HA; expressed in transfected cells; host or cells: human HT1080 cells, stably transduced (pLNCX2 retroviral vector)
Sequence of LRP6 (O75581 20-1613): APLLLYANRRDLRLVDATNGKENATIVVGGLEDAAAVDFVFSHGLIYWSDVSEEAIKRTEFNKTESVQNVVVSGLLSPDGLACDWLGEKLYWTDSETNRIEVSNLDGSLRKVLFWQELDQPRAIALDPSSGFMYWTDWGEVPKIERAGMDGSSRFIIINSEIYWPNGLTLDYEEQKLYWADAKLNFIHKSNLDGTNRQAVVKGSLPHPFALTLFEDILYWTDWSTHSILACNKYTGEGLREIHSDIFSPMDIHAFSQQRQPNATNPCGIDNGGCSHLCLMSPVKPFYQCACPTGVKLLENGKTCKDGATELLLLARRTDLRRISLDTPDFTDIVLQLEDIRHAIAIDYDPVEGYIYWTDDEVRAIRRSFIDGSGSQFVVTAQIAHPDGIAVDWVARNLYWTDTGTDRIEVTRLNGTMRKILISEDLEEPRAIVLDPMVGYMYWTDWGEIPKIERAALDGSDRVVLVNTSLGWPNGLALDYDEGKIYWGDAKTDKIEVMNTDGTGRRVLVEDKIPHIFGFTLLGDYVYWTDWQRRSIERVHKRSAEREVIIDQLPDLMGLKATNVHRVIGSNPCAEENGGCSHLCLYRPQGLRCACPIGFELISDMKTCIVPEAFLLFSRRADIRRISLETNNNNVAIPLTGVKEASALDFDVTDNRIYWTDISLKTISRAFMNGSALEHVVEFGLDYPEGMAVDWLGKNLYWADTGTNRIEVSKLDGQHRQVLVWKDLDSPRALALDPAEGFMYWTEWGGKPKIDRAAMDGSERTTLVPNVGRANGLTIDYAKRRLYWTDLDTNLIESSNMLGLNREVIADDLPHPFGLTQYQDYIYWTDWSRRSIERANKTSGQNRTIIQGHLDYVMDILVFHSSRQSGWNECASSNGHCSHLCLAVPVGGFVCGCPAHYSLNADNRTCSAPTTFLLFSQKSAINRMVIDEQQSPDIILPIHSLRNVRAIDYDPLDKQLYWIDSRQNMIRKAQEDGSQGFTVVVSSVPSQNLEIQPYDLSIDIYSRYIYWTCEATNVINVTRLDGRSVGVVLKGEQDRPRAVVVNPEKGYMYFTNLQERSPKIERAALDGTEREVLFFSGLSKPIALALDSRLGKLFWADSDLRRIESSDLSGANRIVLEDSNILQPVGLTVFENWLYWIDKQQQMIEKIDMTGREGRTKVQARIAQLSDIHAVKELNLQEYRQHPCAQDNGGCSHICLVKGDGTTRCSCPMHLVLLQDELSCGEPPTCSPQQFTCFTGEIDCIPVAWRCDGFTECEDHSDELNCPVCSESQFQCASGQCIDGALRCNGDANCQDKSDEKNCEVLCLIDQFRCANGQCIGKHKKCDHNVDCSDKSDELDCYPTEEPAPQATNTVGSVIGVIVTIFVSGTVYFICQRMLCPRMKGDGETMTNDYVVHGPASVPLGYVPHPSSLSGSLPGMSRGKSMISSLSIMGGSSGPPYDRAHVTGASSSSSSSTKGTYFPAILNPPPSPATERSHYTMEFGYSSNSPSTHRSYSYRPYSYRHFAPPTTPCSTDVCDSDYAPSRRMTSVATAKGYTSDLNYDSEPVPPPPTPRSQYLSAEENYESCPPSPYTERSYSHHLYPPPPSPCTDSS
Procedure: To examine whether Mesd binds with high affinity to […] at the cell surface, cell surface ligand binding experiments were performed with cells stably transduced with LRP6 cDNA. Human HT1080 cells, which express undetectable levels of LRP6, were transduced with a viral vector alone (pLNCX2) or with vector containing LRP6 cDNA (Li, Y., Oncogene 23: 9129-9135, 2004) and used for ^125I-Mesd binding (FIG. 1A). ^125I-Mesd (5 nM) reached maximal binding after 2 hours incubation at 4° C. with LRP6-expressing HT1080 cells (FIG. 1A).
(A) Time course of ^125I-Mesd (5 nM) binding to LRP6-transduced HT1080 cells and the control cells. Assay was carried out for the indicated periods at 4° C. in the absence (total) or presence of 500 nM Mesd (non-specific). (B) Saturation binding of ^125I-Mesd to LRP6-transduced HT1080 cells and the control cells. Assay was carried out at indicated concentrations for 3 hours at 4° C. in the absence (total) or presence (non-specific) of 500 nM Mesd. (C) Scatchard plots of data in B. All values are the average of triple determinations with the s.d. indicated by error bars.
as §1

B1: Mesd: recombinant wild-type mouse Mesd, polyhistidine tail at the N-terminus, lacks the signal peptide, expressed in E. coli (protein)
chain: ADTPGEATPPPRKKKDIRDYNDADMARLLEQWEKDDDIEEGDLPEHKRPSAPIDFSKLDPGKPESILKMTKKGKTLMMFVTVSGNPTEKETEEITSLWQGSLFNANYDVQRFIVGSDRAIFMLRDGSYAWEIKDFLVSQDRCAEVTLEGQMYPGKGGGSKEKNKTKPEKAKKKEGDRKPRASKEDNRAGSRREDL
modifications: left off: small tags and cut ends
notes: recombinant wild-type mouse Mesd, polyhistidine tail at the N-terminus, lacks the signal peptide, expressed in E. coli
For B1, the “Specific Mesd binding to U87 or SMC (express abundant LRP)” value [1] was “minimal”, the “^125I-Mesd binding to other members of the LDLR family” value [2] was “not significantly” and the “Restoring of Wnt signaling inhibited by Dkk1 (luciferase activity)” value (Wnt signaling) was “at least partially restoring Wnt signaling”. For the same molecule, the “Inhibition of ^125I-Mesd binding to cell surface LRP6” value (LRP6; 500 nM unlabeled competitor, ^125I-Mesd 5 nM, 2 hours at 4° C.) was > 90%, the “Concentration at which Mesd specific binding saturates” value (LRP6; LRP6-transduced HT1080 cells, 3 hours at 4° C.) was > 6.4 nM and the “^125I-Mesd binding level” value (LRP6; ^125I-Mesd 5 nM, 4 hours at 4° C., LRP6-transduced HT1080 cells) was 1320 fmoles/mg cell protein. The “Effect of excess unlabeled Mesd on ^125I-Mesd binding” value (LRP6; unlabeled Mesd 500 nM, ^125I-Mesd 5 nM, 4° C.) was “completely eliminated this binding”.
